The text below walks through data of paper doi:10.1101/2022.03.02.482641v1.

Substrate in the data set: NC(=O)c1ccc[n+]([C@@H]2O[C@H](COP(=O)([O-])OP(=O)(O)OC[C@H]3O[C@@H](n4cnc5c(N)ncnc54)[C@H](O)[C@@H]3O)[C@@H](O)[C@H]2O)c1
In words: purified protein.

B1: hSARM1 (hSARM1 w.t., near-intact, 26ERL...GPT724) (Homo sapiens) (protein)
chain: ERLAVPGPDGGGGTGPWWAAGGRGPREVSPGAGTEVQDALERALPELQQALSALKQAGGARAVGAGLAEVFQLVEEAWLLPAVGREVAQGLCDAIRLDGGLDLLLRLLQAPELETRVQAARLLEQILVAENRDRVARIGLGVILNLAKEREPVELARSVAGILEHMFKHSEETCQRLVAAGGLDAVLYWCRRTDPALLRHCALALGNCALHGGQAVQRRMVEKRAAEWLFPLAFSKEDELLRLHACLAVAVLATNKEVEREVERSGTLALVEPLVASLDPGRFARCLVDASDTSQGRGPDDLQRLVPLLDSNRLEAQCIGAFYLCAEAAIKSLQGKTKVFSDIGAIQSLKRLVSYSTNGTKSALAKRALRLLGEEVPRPILPSVPSWKEAEVQTWLQQIGFSKYCESFREQQVDGDLLLRLTEEELQTDLGMKSGITRKRFFRELTELKTFANYSTCDRSNLADWLGSLDPRFRQYTYGLVSCGLDRSLLHRVSEQQLLEDCGIHLGVHRARILTAAREMLHSPLPCTGGKPSGDTPDVFISYRRNSGSQLASLLKVHLQLHGFSVFIDVEKLEAGKFEDKLIQSVMGARNFVLVLSPGALDKCMQDHDCKDWVHKEIVTALSCGKNIVPIIDGFEWPEPQVLPEDMQAVLTFNGIKWSHEYQEATIEKIIRFLQGRSSRDSSAGSDTSLEGAAPMGPT
With B1, the Km (usually the substrate concentration at which the rate is half of its maximum) was 33 µM and the kcat – broadly, the maximal rate divided by the concentration of active sites – was 3.65 s⁻¹.

B2: zfSARM1 (zebrafish SARM1, zfSARM1 w.t.) (Danio rerio) (protein)
chain: DRLTVPEYVSSRLHNRRTAPDPRAVSPGISTDVQAVLDGSLPALRSAIRTLRSSKDTGDLEETRRAIAETFQLVEEAWVLPTVGRRVAEEICNRIRLDGGLELLLQLMQTPAVEITYESAKLLEQILVSENRDYVARMGLGVILNLTREQEDAQLARSVSGILEHMFKHTEETSAQLITNGALDTILYWCRGTDPTVLRHCAVALSNCAMYGGHRCQRLMIEKQAAEWLFPLAFSKEDELIRFHACLAVAVLAANREMEKEVVKSGTLELVEPFIASLDPDEFARNMLDSADSMQGRTAADLQHLLPLLDGTRLEGKCIAAFYLCVETSIKSRQRNTKIFQEIGAVQSLKRIVMYSSNATVCSLAKRALKMMSEEVPRRILSSVPNWKSGEVQTWLQQIGFSAFSERFQELQVDGDLLLNITEQDLIQDLGMTSGLTRKRFLRDLRVLKTYANYSTCDPNNLADWLADADPRFRQYTYGLVQSGVDRNNIVHITDQQLLTDCHVENGIHRAKILSAARRPSKPCLTDSQPKGPDVFISYRRTTGSQLASLLKVHLQLRGFSVFIDVEKLEAGRFEEKLITSVQRARNFILVLSANALDKCMGDVAMKDWVHKEIVTALNGKKNIVPVTDNFVWPDPTSLPEDMSTILKFNGIKWSHEYQEATIEKILRFLEGCPSQEKPDGAKTDKKEPQKK
B2: the Km is listed as 28 µM and the kcat was determined as 6.85 s⁻¹.
